# Source: ChEMBL document CHEMBL1124124, “Synthesis and interaction with uridine phosphorylase of 5'-deoxy-4',5-difluorouridine, a new prodrug of 5-fluorouracil” (J Med Chem, 1988)
# B1: Uridine phosphorylase 1 (Homo sapiens), Q16831 (protein)
# chain: MAATGANAEKAESHNDCPVRLLNPNIAKMKEDILYHFNLTTSRHNFPALFGDVKFVCVGGSPSRMKAFIRCVGAELGLDCPGRDYPNICAGTDRYAMYKVGPVLSVSHGMGIPSISIMLHELIKLLYYARCSNVTIIRIGTSGGIGLEPGTVVITEQAVDTCFKAEFEQIVLGKRVIRKTDLNKKLVQELLLCSAELSEFTTVVGNTMCTLDFYEGQGRLDGALCSYTEKDKQAYLEAAYAAGVRNIEMESSVFAAMCSACGLQAAVVCVTLLNRLEGDQISSPRNVLSEYQQRPQRLVSYFIKKKLSKA
# Experiments:
# [1] = Kinetic constant for interaction with Urd phosphorylase from Lewis lung carcinoma
# [2] = target: Uridine phosphorylase 1 (Mus musculus) (UniProt P52624); test: as above; conditions: mouse
# Sequence of Uridine phosphorylase 1 (Mus musculus) (P52624 whole entry, looked up): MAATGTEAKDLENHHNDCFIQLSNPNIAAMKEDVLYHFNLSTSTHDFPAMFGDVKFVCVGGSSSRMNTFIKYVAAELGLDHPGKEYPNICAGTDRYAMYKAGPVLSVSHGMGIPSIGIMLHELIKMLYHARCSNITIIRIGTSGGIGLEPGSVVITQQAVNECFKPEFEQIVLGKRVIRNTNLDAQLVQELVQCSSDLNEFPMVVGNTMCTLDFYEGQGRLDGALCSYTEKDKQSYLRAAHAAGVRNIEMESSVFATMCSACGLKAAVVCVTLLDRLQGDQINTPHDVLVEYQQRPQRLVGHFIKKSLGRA
protein,measurement,setting,value
B1,Km,[1],0.6 mM
same,Km,[2],6 mM
